Here are results for 2 molecules from patent US20150166643A1 (Alexion, published 2015).

Test [1] concerns the target T1, human factor B (purified, Complement Technology A135) (human, UniProt P00751 26-764).
T1 construct: also called fB; human complement factor B
The experiment in a line: BLI (Octet), mAb on anti-human Fc biosensor, 25 nM human factor B. The protocol:
(§1) Binding kinetics of TA106-originated mAbs were analyzed using a FortéBio® Octet® biosensor (FortéBio, Inc.) in a similar protocol as described previously. In one exemplary experiment, wild type (CLS011) and the variant S33A (CLS013) mAbs were captured on anti-human Fc biosensors at a concentration of 5 μg/mL, diluted in 1× kinetics buffer (KB, a proprietary formulation containing PBS/Tween). Capture (loading) was carried out for 400 seconds, followed by briefly dipping the biosensors in 1×KB as a wash for 30 seconds. Associations with a titration series of purified human Factor B (Complement Technology, Tyler, Tex.), which concentrations range from 50 to 3 nM (diluted in 1×KB), were carried out for 300 seconds.

The target of test [2] is T1, human factor B (purified, Complement …). In words: BLI (Octet), mAb on anti-human Fc biosensor, 12.5 nM human factor B. The method, then: as §1
(In general: In BLI a coated tip is dipped into the sample, and binding shifts an interference pattern.)

Test [3] shares this target. The experiment in a line: cell-based or functional assay.
For test [4] the target is unchanged. In words: BLI (Octet), mAb on anti-human Fc biosensor, 50 nM human factor B. The method, then:
as §1

Test [5] has the same target. In words: SPR (Biacore), CLS011 captured on anti-Fc surface, soluble factor B 3.1-100 nM flowed; Chi2 0.283. From the text:
(§2) Binding kinetics of mAbs were further characterized using Biacore's Surface Plasmon Resonance (SPR) technology (GE Healthcare, Piscataway, N.J.). For a detailed description of SPR and its applications in affinity measurement, please see Karlsson and Larsson, Antibody Engineering: Methods and Protocols, Methods in Molecular Biology (2003), 248: 389-415. In one exemplary experiment, TA106 Fab and derivative mAbs were captured on chips of a Biacore 3000 analyzer and samples of human factor B of different concentrations were flowed as the antigen over the surface to model soluble human factor B binding, using protocols recommended by the manufacturer (e.g., in the product brochure #BR-9003-31). All these referenced publications are hereby incorporated by reference in their entirety. […] Fab TA106 (Xoma, Lot#TTA1007, 20 mg/mL) was then flowed over one flow cell, followed by injections of human factor B on both flow cells. Concentrations (factor B) between 3.1-200 nM were run. The surface was regenerated between each cycle. […] The affinities of mAbs, i.e., CLS011, CLS012, and CLS013, were determined using a similar capture approach. In one exemplary experiment, human anti-Fc antibody was amine coupled to two flow cells of a CM5 chip. Each of the TA106-originated mAbs was then flowed over one flow cell, followed by injecting human factor B (3.1-200 nM) on both flow cells. […]

For test [6] the target is unchanged. In words: SPR (Biacore 3000), mAb captured by anti-Fc antibody on CM5 chip, soluble human factor B 3.1-200 nM.
Excerpt: as §2
(Surface plasmon resonance follows binding to a sensor surface in real time, without labels.)

For test [7] the target is unchanged. The experiment in a line: SPR, captured mAb, soluble factor B (summary table).
Excerpt: as §2

The target is the same in test [8]. In words: SPR (Biacore), CLS013 captured on anti-Fc surface, soluble factor B 3.1-100 nM flowed; Chi2 1.05.
Excerpt: as §2

For test [9] the target is unchanged. The experiment in a line: ELISA, human factor B coated at 0.5 ug/mL, detection with sheep anti-human kappa light chain HRP, abs 450 nm against nM antibody. The method, then: The binding activities of these mAbs towards factor B were analyzed by ELISA using standard protocols. In one exemplary experiment, MaxiSorp™ ELISA plates (Nunc, #439454, Rochester, N.Y.) were coated with 50 μL of human factor B (Complement Technology, A135, 1 mg/mL, lot 14c) at a concentration of 0.5 μg/mL in carbonate coating buffer (0.795 g carbonate+1.46 g bicarbonate+1 mL 1% NaN₃ (final concentration of 0.002%) in 500 mL water, pH 9.6 (lot 02 August 10)). Plates then were covered with plate sealers and incubated at 37±1° C. for one hour. Following coating, wells were emptied of reagent and washed in a BioTek® ELx405 plate washer (BioTek, Winooski, Vt.) for three times with 200 μL wash solution (PBS/0.05% Tween 20) per well. Following washes, wells were blocked with 100 μL of BSA (1% w/v) and incubated for one hour at room temperature. Wells were then washed again as described above. Fifty microliter samples (i.e., TA106 Fab, CLS011 mAb, CLS012 mAb, and CLS013 mAb) were then added to wells and incubated for one hour at room temperature. […] The plate was read on a Benchmark™ microplate reader (Bio-Rad Laboratories, Hercules, Calif.) at 450 nm. Standard curves were plotted with 4 parameter fit with DeltaSoft® 1.6 software, and sample concentrations were determined from the standard curves.

T1 sequence (P00751 26-764): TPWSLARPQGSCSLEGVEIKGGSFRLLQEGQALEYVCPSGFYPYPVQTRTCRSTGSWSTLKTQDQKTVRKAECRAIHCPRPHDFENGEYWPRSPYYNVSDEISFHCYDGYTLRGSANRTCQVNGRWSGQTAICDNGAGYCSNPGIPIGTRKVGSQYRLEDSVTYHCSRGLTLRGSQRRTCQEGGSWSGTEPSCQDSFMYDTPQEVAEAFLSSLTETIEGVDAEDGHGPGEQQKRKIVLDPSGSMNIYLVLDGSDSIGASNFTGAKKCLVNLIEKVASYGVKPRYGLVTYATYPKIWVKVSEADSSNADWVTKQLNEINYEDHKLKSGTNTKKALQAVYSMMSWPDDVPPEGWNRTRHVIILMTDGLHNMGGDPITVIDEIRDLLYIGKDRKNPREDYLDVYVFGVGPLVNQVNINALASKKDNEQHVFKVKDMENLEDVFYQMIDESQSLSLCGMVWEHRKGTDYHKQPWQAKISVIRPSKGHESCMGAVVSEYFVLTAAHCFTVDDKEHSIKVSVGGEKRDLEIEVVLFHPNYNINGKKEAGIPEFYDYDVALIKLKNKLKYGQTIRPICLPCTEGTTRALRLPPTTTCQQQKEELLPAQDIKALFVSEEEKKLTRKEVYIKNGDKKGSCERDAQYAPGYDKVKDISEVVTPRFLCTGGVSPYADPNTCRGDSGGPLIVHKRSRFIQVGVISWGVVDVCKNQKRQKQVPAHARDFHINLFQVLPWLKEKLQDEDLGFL

B1: CLS011 (TA106-derivative full-length IgG2/4 mAb, wild type light chain, expressed in CHO cells) (antibody, V domains shown)
VH: EVQLVQSGAEVKKPGASVKVSCKASGYSFTDYYMTWVRQAPGQGLEWMGWINPNSGGTKYAQKFQGRVTMTRDTSISTAYMELSRLRSDDTAVYYCARGYYANSAWFAYWGQGTLVTVSS
VL: DIVMTQSPDSLAVSLGERATINCKSSQSLLNSSTSKNYLAWYQQKPGQPPKLLIYWASTRESGVPDRFSGSGSGTDFTLTISSLQAEDVAVYYCKQVYNLPWTFGQGTKLEIKR
modifications: N-linked glycans on the N31-S32-S33 motif of CDR1; N-linked glycans on the heavy chain (possibly at N296)
notes: Human IgG2/4 full-length mAb; also called CLS011 mAb; TA106-derivative mAb
Usually Kd stands for the constant that tells how readily two partners part at equilibrium. The low end stands for a tighter complex, the high end for a looser complex. A word on the koff: it is the rate constant with which the complex falls apart. In general, kon refers to the second-order rate constant of association. Read a high kon as fast association. Turning to B1, the Kd was 17.3 nM in test [1]; 11.1 nM in test [2]; 24.9 nM in test [4]; about 15.4 nM in [6]; 15 nM in [7]. In addition, the koff came to 0.00297 s⁻¹ in [1], 0.00289 s⁻¹ in test [2], 0.00418 s⁻¹ in [4] and 0.00253 s⁻¹ in test [5]. Besides, the kon in [1] is 171000 M⁻¹ s⁻¹; in [2], 261000 M⁻¹ s⁻¹; in test [4] it was 168000 M⁻¹ s⁻¹; in test [5] it was 165000 M⁻¹ s⁻¹. Moreover, the “IC50 (read off the curve); lysis of rabbit red blood cells in 10% normal human serum” value in test [3] was about 50 nM.

B2: CLS013 (TA106-derivative S33A variant, full-length IgG2/4 mAb, expressed in CHO cells) (antibody, V domains shown)
VH: EVQLVQSGAEVKKPGASVKVSCKASGYSFTDYYMTWVRQAPGQGLEWMGWINPNSGGTKYAQKFQGRVTMTRDTSISTAYMELSRLRSDDTAVYYCARGYYANSAWFAYWGQGTLVTVSS
VL: DIVMTQSPDSLAVSLGERATINCKSSQSLLNSATSKNYLAWYQQKPGQPPKLLIYWASTRESGVPDRFSGSGSGTDFTLTISSLQAEDVAVYYCKQVYNLPWTFGQGTKLEIKR
modifications: N-linked glycans on the heavy chain
notes: Human IgG2/4 full-length mAb; also called CLS013 mAb; TA106 variant S33A
Broadly, the EC50 (read off the curve) is the concentration giving half of the maximal effect. Read a low EC50 (read off the curve) as greater potency. As for B2, the Kd in test [1] was 52.2 nM; in [2], 37.7 nM; in test [4] it was 32.1 nM; in [6], about 17.6 nM; in test [7], 18 nM. Further, the koff in test [1] worked out at 0.00472 s⁻¹; in test [8], 0.00311 s⁻¹; in test [2], 0.00428 s⁻¹; in test [4], 0.00504 s⁻¹. The kon worked out at 90300 M⁻¹ s⁻¹ in test [1], 177000 M⁻¹ s⁻¹ in test [8], 114000 M⁻¹ s⁻¹ in test [2] and 157000 M⁻¹ s⁻¹ in [4]. Further, in [9], the “EC50 (read off the curve)” value was about 0.4 nM. Also, the “IC50 (read off the curve); lysis of rabbit red blood cells in 10% normal human serum” value in [3] was about 20 nM.
